Results taken from US20120328625A1 (AstraZeneca / MedImmune, published 2012).

Key:
[1] = biological target: T1, Recombinant Human Desert Hedgehog C23II, amino terminal peptide (R&D Systems cat#4777-HH) (human, UniProt O43323 23-198); assay: ELISA, immobilized human Dhh, antibody 30 µg/ml to 1 pg/ml
T1 construct: domain: amino terminal peptide; bought; also called Human Dhh
Method: The plates were washed four times with PBS-T. Titrations of purified antibody (half log serial dilutions over at least six logs with a starting concentration of 30 μg/mL) were made in 100 μl PBS-T and added into wells and incubated with shaking overnight at 4° C. Antibody controls included human IgG2 and IgG4 (Sigma-Aldrich, Cat, #I5404 and #I4639, respectively). […] Following washing with PBS-T, the chemiluminescent Peroxidase substrate (Sigma cat# CPS-2-60) was added at room temperature and incubated for ten minutes with the plate covered by foil. Each well was read for 100 msec in the Spectromax 5e to determine RLU.
After washing with PBS-T and blocking with 1% BSA, antibody titrations spanning concentrations of 30 μg/ml to 1 pg/ml prepared by half log serial dilution in PBS-T were added to wells and incubated with shaking overnight at 4° C.

[2] = biological target: T2, Shh-N in conditioned medium (human, UniProt Q15465 24-197, N-terminal palmitoyl modification; lacks the C-terminal cholesterol moiety); assay: cell-based or functional assay
[3] = biological target: T3, full length human Shh expressed on the cell surface (human, UniProt Q15465 24-462); assay: cell-based or functional assay
[4] = biological target: T2, Shh-N in conditioned medium; assay: ELISA, apparent KD, purified antibody on immobilized Shh-CM
Method: (§1) The binding of purified antibodies to recombinant human Shh was determined using an ELISA-based method. The N-terminal signaling domain of Shh, Shh-N, was presented in two forms: as a purified protein isolated from bacteria lacking lipid modifications and as a constituent of conditioned medium in a form that contains the N-terminal palmitoyl modification but lacks the C-terminal cholesterol moiety.
(§2) The plates were sealed and placed on a shaker overnight at 5° C. The next day, the plates were washed 4 times with PBS with 0.05% Tween 20 (PBS-T). […] The plates were washed four times with PBS-T. Titrations of purified antibody (half log serial dilutions over at least six logs with a starting concentration of 30 μg/mL) were made in 100 μl PBS-T and added into wells and incubated with shaking overnight at 4° C. Antibody controls included human IgG2 and IgG4 (Sigma-Aldrich, Cat, #I5404 and #I4639, respectively). […] Following washing with PBS-T, the chemiluminescent Peroxidase substrate (Sigma cat# CPS-2-60) was added at room temperature and incubated for ten minutes with the plate covered by foil. Each well was read for 100 msec in the Spectromax 5e to determine RLU.

[5] = biological target: T2, Shh-N in conditioned medium; assay: cell-based or functional assay; remark: listed apart in the source
[6] = biological target: T3, full length human Shh expressed on the …; assay: cell-based or functional assay; remark: listed apart in the source
[7] = biological target: T4, Recombinant Human Sonic Hedgehog C24II amino terminal peptide (R&D Systems cat#1845-SH) (human, UniProt Q15465 24-197); assay: ELISA, apparent KD, purified antibody on immobilized Shh C24II
T4 construct: domain: amino terminal peptide; bought; also called Shh-C24II; C24II peptide
Method: as §1, §2

[8] = biological target: T5, biotinylated human Shh (human, UniProt Q15465 24-197, limits assumed, biotinylated); assay: ELISA, hybridoma supernatant on neutravidin-captured biotin-Shh
T5 construct: also called biotin-Shh; immobilized biotinylated Shh
Method: After blocking with 1% milk in PBS, 40 μl of 500 ng/ml biotinylated Shh in 1×PBS, 1% milk (wt/vol) was added to each well and incubated for 1 hr at RT. Hybridoma supernatants (10 μl/well) were added to 40 μl of 1% milk, 0.05% Tween-20 in PBS per well and incubated 1 hr at RT. Following washing and incubation with secondary antibody (100 ng/ml goat-anti-human IgG Fc HRP), wells were developed with TMB substrate and subsequently quenched with 1 N HCl.

[9] = biological target: T3, full length human Shh expressed on the …; assay: flow cytometry, hybridoma-derived hIgG4 on HEK 293 cells stably expressing full length Shh; 95% CI ±141 pM
Method: The binding affinity of the purified antibodies for full length Shh ectopically expressed on the surface of a pool of stable HEK 293 cells was determined using flow cytometry. […] Antibody was mixed with cells at approximately 74,000 cells/well in a final volume of 300 μl in a polypropylene microtiter plate. The plate was incubated with shaking for 5 hours at 4° C. […] The plates were shaken for 20 minutes at 4° C. The mean fluorescence of 10,000 events was recorded for each sample using FACS Canto II HTS flow cytometry instrumentation. A plot of the mean fluorescence as a function of antibody concentration was fit nonlinearly with Scientist 3.0 software to estimate KD.

[10] = biological target: T3, full length human Shh expressed on the …; assay: flow cytometry, exhaust hybridoma supernatant 1:10, 293T cells transiently expressing human Shh
Method: (§3) Finally, binding of antibody in exhaust hybridoma supernatants to native Shh was assessed using flow cytometry. […] Transfected or parental cells were seeded into the plates with V-bottom wells (50,000 cells/well). Exhaust supernatants (50 μl of a 1:10 dilution) were added to each well and incubated at 4° C. for 1 hr. […] It was added to a concentration of 2 μg/ml in a volume of 50 μl. Cells were washed and 50 μl of a 2 μg/ml solution of secondary antibody (Cy5-labeled goat-anti-human IgG or Cy5-labeled goat-anti-rabbit IgG) were added to each well. 7AAD was added to a concentration of 5 μg/ml and the mixture was incubated for 30 min at RT. The mean fluorescence for each sample was then determined using flow cytometry.

[11] = biological target: T3, full length human Shh expressed on the …; assay: FMAT, hybridoma supernatant on 293T cells transiently expressing human Shh
Method: Cells were maintained at 1×10⁶ cells/ml overnight at 37° C., 5% CO₂. […] Supernatants were added to each well (10 μl/well) and incubated 1.5 hrs at RT. […] Plates were read on the FMAT 8100 HTS system from Applied Biosystems. Total signal (FL1×count) is defined as the number of positive cells in a well (count) multiplied by the average fluorescence intensity of the positive cells (FL1).

[12] = biological target: T2, Shh-N in conditioned medium; assay: cell-based or functional assay; remark: listed apart in the source
[13] = biological target: T2, Shh-N in conditioned medium; assay: SPR (Biacore T100), recombinant IgG2 mAb amine-coupled to CM5, Shh as analyte, 1:1 model
Method: (§4) The binding affinity of four purified recombinant antibodies expressed in a human IgG2 constant domain background was measured by high resolution Biacore. All experiments were performed using a Biacore T100 instrument at 23° C. […] All mAbs were covalently coupled to a CM5 biosensor chip using routine amine coupling chemistry. […] For experiments with Shh-containing conditioned media (CM), a 1.5 mL aliquot was centrifuged for 10 minutes at 13,200 rpm. […] Shh samples were randomly injected in triplicate with several buffer inject cycles interspersed for double referencing. All sensorgram data were processed using Scrubber and fit to a 1:1 interaction model (including a term kₘ for mass transport) using CLAMP.

[14] = biological target: T4, Recombinant Human Sonic Hedgehog C24II …; assay: as above
Method: as §4

[15] = biological target: T3, full length human Shh expressed on the …; assay: flow cytometry, recombinant hIgG2 on CAOV3 cells stably over-expressing full length Shh; 95% CI ±30.4 pM
[16] = biological target: T3, full length human Shh expressed on the …; assay: flow cytometry, transfected against parental 293T cells
Method: as §3

[17] = biological target: T2, Shh-N in conditioned medium; assay: SPR (Biacore T100), recombinant IgG2 mAb amine-coupled to CM5, Shh as analyte, 1:1 model; KD only an estimate
Method: as §4

[18] = biological target: T4, Recombinant Human Sonic Hedgehog C24II …; assay: as above
Method: as §4

[19] = biological target: T3, full length human Shh expressed on the …; assay: flow cytometry, recombinant hIgG2 on CAOV3 cells stably over-expressing full length Shh; 95% CI ±19.4 pM
[20] = biological target: T2, Shh-N in conditioned medium; assay: cell-based or functional assay; remark: listed apart in the source
[21] = biological target: T3, full length human Shh expressed on the …; assay: flow cytometry, recombinant hIgG2 on CAOV3 cells stably over-expressing full length Shh; 95% CI ±32.4 pM
[22] = biological target: T3, full length human Shh expressed on the …; assay: flow cytometry, recombinant hIgG2 on CAOV3 cells stably over-expressing full length Shh; 95% CI ±460 pM

Binder | % Inh of Gli1 reporter, CM N = 1 [2] [%] | % Inh of Gli1 reporter, CM N = 3 [2] [%] | % Inh of Gli1 reporter, Co-Culture N = 1 [3] [%] | % Inh of Gli1 reporter, Co-Culture N = 2 [3] [%] | % Inhibition of Gli1 reporter, Conditioned Media N = 1, 20 µg/ml [5] [%] | % Inhibition of Gli1 reporter, Conditioned Media N = 2, 20 µg/ml [5] [%] | % Inhibition of Gli1 reporter, Co-Culture N = 1, 20 µg/ml [6] [%] | % Inhibition of Gli1 reporter, Co-Culture N = 2, 20 µg/ml [6] [%] | OD450 [8] [OD450] | X Geo Mean (Transients) [10] | FL1 X COUNT [11] | IC50, inhibition of osteoblast differentiation (alkaline phosphatase) of C3H10T1/2 cells [12] [pM] | Kd [13] [pM] | Kd [14] [pM] | other results
3H8 (antibody, V domains shown, fully human XenoMouse hybridoma antibody; also called MAb 3H8) VH: QVQLVESGGGVVQPGRSLRLSCAASGFTFSTYGMHWVRQAPGKGLEWVAVIWYDGSNKYYADSVKGRFTISRDNSKNTLNLQMNSLRAEDTAVYYCARDLYYYGSGSPFDYWGQGTLVTVSS VL: EIVMTQSPATLSVSPGERATLSCRASQSVSSNLAWYQQKPGQAPRLLIFGVSIRATGIPARFSGSGSGTEFTLTISSLQSEDFAVYYCQQYNNWPRPGFGGGTKVEIK | 21 | -24 | 35 | 32 | 37 | 44 | 73 | 87 | 3.81 | 148 | 497000 | 3400 | – | – | binding result [1]: no binding; Kd [4]: 331 pM; Kd [7]: 69 pM; Kd [9]: 250 pM
3H8 recombinant IgG2 (antibody, V domains shown) VH: QVQLVESGGGVVQPGRSLRLSCAASGFTFSTYGMHWVRQAPGKGLEWVAVIWYDGSNKYYADSVKGRFTISRDNSKNTLNLQMNSLRAEDTAVYYCARDLYYYGSGSPFDYWGQGTLVTVSS VL: EIVMTQSPATLSVSPGERATLSCRASQSVSSNLAWYQQKPGQAPRLLIFGVSIRATGIPARFSGSGSGTEFTLTISSLQSEDFAVYYCQQYNNWPRPGFGGGTKVEIK | – | – | – | – | – | – | – | – | – | – | – | – | 5.6 | 26.7 | Kd [15]: 68.2 pM
4B6 (antibody, V domains shown, fully human XenoMouse hybridoma antibody; tested as hybridoma supernatant and as purified antibody; also called MAb 4B6) VH: QVQLVESGGGVVQPGRSLRLSCAASGFTFSTYGMHWVRQAPGKGLEWVAVIWYDGSNEYYADSVKGRFTISRDNSKNTLYLQMNSLRAEDTAVYYCARDLYYYGSGSPFDYWGQGTLVTVSS VL: EIVMTQSPATLSVSPGERATLSCRASQSVSSNLAWYQQKPGQAPRLLIFGISIRATGIPARFSGSGSGTEFTLTISSLQSEDFAVYYCQQYNDWPRPGFGGGTRVEIK | 46 | 22 | 31 | 34 | 73 | 43 | 44 | 76 | 5.14 | 196 | 625000 | 3300 | – | – | ratio [16]: 50.2; % Inhibition of Gli1 reporter, Co-Culture N = 3, 20 µg/ml [6]: 22%
6D7 recombinant IgG2 (antibody, V domains shown) VH: QVQLQESGPGLVKPSQTLSLTCTVSGGSINSGGFYWSWIRQHPGKNLEWIGSIYYSGNTYYNPSLKSRVTISVDTSKNQFSLKLTSVTAADTAVYYCARGNDSGDYDWYFDLWGRGTLVTVSS VL: SYELTQPPSVSVSPGQTASITCSGEKLGYKYVCWYQQKPGQSPVLVIFHDNKRPSGIPERFSGSNSGNTATLTISGAQAMDEADYYCQAGDSSAVFGGGTKLTVL | – | – | – | – | – | – | – | – | – | – | – | – | – | – | Kd [17]: 3.4 pM; Kd [18]: 13.5 pM; Kd [19]: 37.1 pM
1G1 (antibody, V domains shown, fully human XenoMouse hybridoma antibody; also called MAb 1G1) VH: EVQLVESGGGLVKPGGSLRLSCAASGFTFSSYSMNWVRQAPGKGLEWVSSFSSSSSYIYYADSVKGRFTISRDNAKNSLYLQMNSLRAEDTAVYYCARDRGDYVDYYYGMDVWGQGTTVTVSS VL: SYELTQPPSVSVSPGQTASITCSGDKLDYKYICWYQQKPGQSPVLVIYQDIKRPSGIPERFSGSNSGNTATLTISGTQAMDEADYYCQAWDSNTPLVFGGGTKLTVL | 33 | 47 | 42 | 39 | 50 | 61 | 44 | 55 | 4.3 | 188 | 585000 | 5700 | – | – | Kd [4]: 30 pM; % Inhibition of Gli1 reporter, Co-Culture N = 3, 20 µg/ml [6]: 19%; Kd [7]: 61 pM; IC50, inhibition of endogenous mouse Gli1 mRNA (qRT-PCR) in C3H10T1/2 cells [20]: 7700 pM; IC50, inhibition of endogenous mouse Ptc1 mRNA (qRT-PCR) in C3H10T1/2 cells [20]: 8700 pM
1G1 recombinant IgG2 (antibody, V domains shown) VH: EVQLVESGGGLVKPGGSLRLSCAASGFTFSSYSMNWVRQAPGKGLEWVSSFSSSSSYIYYADSVKGRFTISRDNAKNSLYLQMNSLRAEDTAVYYCARDRGDYVDYYYGMDVWGQGTTVTVSS VL: SYELTQPPSVSVSPGQTASITCSGDKLDYKYICWYQQKPGQSPVLVIYQDIKRPSGIPERFSGSNSGNTATLTISGTQAMDEADYYCQAWDSNTPLVFGGGTKLTVL | – | – | – | – | – | – | – | – | – | – | – | – | 317 | 377 | Kd [21]: 46.5 pM
1H8 recombinant IgG2 (antibody, V domains shown, also called 1H8 hIgG2) VH: QVQLQESGPGLVKPSETLSLTCTVSGGSISSYYWTWIRQPPGKGLEWIGYIYYSGSTNYNPSLKSRVTISVDTSKNQFSLKLSSVTAADTAVYYCARDRLLYGMDVWGQGTTVTVSS VL: not shown | – | – | – | – | – | – | – | – | – | – | – | – | 4310 | 4300 | koff [13]: 0.00289 s⁻¹; kon [13]: 671000 M⁻¹ s⁻¹; koff [14]: 0.00209 s⁻¹; kon [14]: 486000 M⁻¹ s⁻¹; Kd [22]: 1520 pM
